# Assay results taken from patent US20020099180A1 (published 2002).
# T1: fibroblast activating protein alpha (FAPα), cell surface-bound on FAP+ cells (FAP over-expressing HT1080 … (human, UniProt Q12884 1-760))
# T1 construct: whole, on cells; Target of the flow cytometry and of the immunohistology; also called cell membrane expressed FAP
# T1 sequence (looked up): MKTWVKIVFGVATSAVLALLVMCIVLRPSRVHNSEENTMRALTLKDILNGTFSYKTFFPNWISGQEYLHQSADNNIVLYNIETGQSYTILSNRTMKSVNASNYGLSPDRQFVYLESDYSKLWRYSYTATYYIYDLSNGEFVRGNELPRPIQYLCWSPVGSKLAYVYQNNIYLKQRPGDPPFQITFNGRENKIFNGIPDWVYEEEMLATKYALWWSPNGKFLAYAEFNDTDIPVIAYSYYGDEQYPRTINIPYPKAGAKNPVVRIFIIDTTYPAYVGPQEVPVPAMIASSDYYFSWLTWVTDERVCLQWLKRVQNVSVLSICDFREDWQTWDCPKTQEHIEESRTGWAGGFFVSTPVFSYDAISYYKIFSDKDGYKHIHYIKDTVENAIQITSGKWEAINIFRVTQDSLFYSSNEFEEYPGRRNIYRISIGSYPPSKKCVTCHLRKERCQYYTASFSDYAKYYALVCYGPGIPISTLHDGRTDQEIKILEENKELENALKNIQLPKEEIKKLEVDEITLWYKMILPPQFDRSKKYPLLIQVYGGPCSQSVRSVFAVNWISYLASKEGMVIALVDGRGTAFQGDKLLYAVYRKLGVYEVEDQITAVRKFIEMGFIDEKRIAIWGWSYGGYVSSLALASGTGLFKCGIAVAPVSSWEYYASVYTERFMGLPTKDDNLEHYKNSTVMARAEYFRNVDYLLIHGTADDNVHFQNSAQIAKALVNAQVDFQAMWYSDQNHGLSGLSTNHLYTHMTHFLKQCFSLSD
# T2: fibroblast activating protein alpha (FAPα), purified and immobilised (ELISA wells) (human, UniProt Q12884 27-760, limits assumed)
# T2 construct: also called purified FAP; immobilized FAP
# T2 sequence (looked up): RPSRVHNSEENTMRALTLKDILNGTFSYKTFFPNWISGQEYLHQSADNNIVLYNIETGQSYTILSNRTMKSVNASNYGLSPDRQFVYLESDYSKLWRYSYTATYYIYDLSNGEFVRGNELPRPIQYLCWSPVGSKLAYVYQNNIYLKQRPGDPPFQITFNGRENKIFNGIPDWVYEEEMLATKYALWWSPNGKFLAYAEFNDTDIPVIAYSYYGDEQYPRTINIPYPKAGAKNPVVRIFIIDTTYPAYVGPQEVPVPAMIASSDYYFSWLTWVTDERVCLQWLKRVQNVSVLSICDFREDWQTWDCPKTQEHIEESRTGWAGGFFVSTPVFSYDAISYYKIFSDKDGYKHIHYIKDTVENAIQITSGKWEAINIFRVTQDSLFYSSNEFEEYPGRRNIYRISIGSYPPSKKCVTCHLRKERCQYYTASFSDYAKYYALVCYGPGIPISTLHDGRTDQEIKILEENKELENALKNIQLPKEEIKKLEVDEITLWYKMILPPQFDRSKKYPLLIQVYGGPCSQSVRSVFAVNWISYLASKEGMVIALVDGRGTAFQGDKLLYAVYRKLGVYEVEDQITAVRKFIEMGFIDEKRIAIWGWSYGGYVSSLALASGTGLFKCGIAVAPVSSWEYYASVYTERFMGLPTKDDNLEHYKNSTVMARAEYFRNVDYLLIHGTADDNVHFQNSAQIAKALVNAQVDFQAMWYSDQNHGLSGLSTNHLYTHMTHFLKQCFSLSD
# Tests used:
# [1] = molecular target: T1, fibroblast activating protein alpha …; assay: binding to FAP+ cells, cell analyser, half maximal saturation
# [2] = molecular target: T1, fibroblast activating protein alpha …; assay: flow cytometry saturation on FAP expressing HT1080 cells; SC50
# [3] = molecular target: T1, fibroblast activating protein alpha …; assay: flow cytometry saturation on FAP-overexpressing cells; half maximal saturation
# [4] = molecular target: T2, fibroblast activating protein alpha …; assay: sandwich ELISA, c-myc tag detection; SC50 = concentration of half maximal saturation of binding
EC50 [3] [nM],EC50 [4] [nM],Binder,EC50 [1] [nM],EC50 [2] [nM]
,,"scFv #50 in minibody format (bivalent) (other, Minibody: bivalent homodimeric scFv derivative; also called scFv #50 (as bivalent in minibody format); not shown: hinge-linker-CH3-cmyc-HIS6 of the minibody) QVQLVESGGGLVQPGGSLRLSCAASGFTFSNYWMSWVRQAPGKGLEWVANIKQDGSEKYYVDSVKGRFTISRDNAKNSLYLQMNSLRAEDTAVYYCARGSLCTDGSCPTIGPGPNWGQGTLVTVSSAPTKAPKLEEGEFSEARVDIQMTQSPSSLSASTGDRVTITCRASQDISSYLAWYQQAPGKAPHLLMSGATTLQTGVPSRFSGSGSGTDFTLTITSLQSEDFATYYCQQYYIYPPTFGQGTRVEIKRTVAAPSVFAA",32,
,,"scFv #34 (VH #34, IgG; VL III43; murine HCDR3 F19) (scFv, Humanised monovalent scFv, detected through the c-myc tag with 9E10; also called clone #34; VH34YOL III43; not shown: c-myc and HIS6 tags (pOPE101), or pIII in the screening ELISA) scFv: QVQLQQSGAEVKKPGSSVKVSCKASGGTFSTHTINWVRQAPGQGLEWMGGIAPMFGTANYAQKFQGRVTITADKSTSTAYMEMSSLRSDDTAVYYCARRRIAYGYDEGHAMDYWGQGTLVTVSSASTKGPKLEEGEFSEARVDIQMTQSPSSLSASTGDRVTITCRASQDISSYLAWYQQAPGKAPHLLMSGATTLQTGVPSRFSGSGSGTDFTLTISSLQAEDVAVYYCQQYYRTPFTFGQGTKLEIKRTVAAPSVFAA",~6,6
2,,"Mb #34 (minibody of scFv #34) (other, also called scFv #34-minibody; not shown: hinge-linker-CH3-cmyc-HIS6 of the minibody) QVQLQQSGAEVKKPGSSVKVSCKASGGTFSTHTINWVRQAPGQGLEWMGGIAPMFGTANYAQKFQGRVTITADKSTSTAYMEMSSLRSDDTAVYYCARRRIAYGYDEGHAMDYWGQGTLVTVSSASTKGPKLEEGEFSEARVDIQMTQSPSSLSASTGDRVTITCRASQDISSYLAWYQQAPGKAPHLLMSGATTLQTGVPSRFSGSGSGTDFTLTISSLQAEDVAVYYCQQYYRTPFTFGQGTKLEIKRTVAAPSVFAA",,
,,"scFv #13 in minibody format (bivalent) (other, also called scFv #13 (as bivalent in minibody format); scFv #13 (minibody format); not shown: hinge-linker-CH3-cmyc-HIS6 of the minibody) QVQLVESGGTLVQPGGSLRLSCAASGFTFSSYAMSWIRQAPGKGLEWVSGISASGGYIDYADSVKGRVTISRDNSKNMAYLQMSSLRAEDTALYYCAKGGNYQMLLDHWGQGTLVTVSSASTKGPKLEEGEFSEARVDIQMTQSPSSLSASTGDRVTITCRASQDISSYLAWYQQAPGKAPHLLMSGATTLQTGVPSRFSGSGSGTDFTLTITSLQSEDFATYYCQQYYIYPPTFGQGTRVEIKRTVAAPSVFAA",8 to 12,
,20,"scFv F19 (parental murine scFv of the monoclonal antibody F19) (scFv, V domains shown) VH: EVQLQQSGPELVKPGASVKMSCKTSRYTFTEYTIHWVRQSHGKSLEWIGGINPNNGIPNYNQKFKGRATLTVGKSSSTAYMELRSLTSEDSAVYFCARRRIAYGYDEGHAMDYWGQGTSVTVSS VL: DIVMSQSPSSLAVSVGEKVTMSCKSSQSLLYSRNQKNYLAWFQQKPGQSPKLLIFWASTRESGVPDRFTGSGFGTDFNLTISSVQAEDLAVYDCQQYFSYPLTFGAGTKLELK",,20
,20,"chimeric scFv III43 (murine VH F19 / human VL III43) (scFv, V domains shown) VH: EVQLQQSGPELVKPGASVKMSCKTSRYTFTEYTIHWVRQSHGKSLEWIGGINPNNGIPNYNQKFKGRATLTVGKSSSTAYMELRSLTSEDSAVYFCARRRIAYGYDEGHAMDYWGQGTSVTVSS VL: DIQMTQSPSSLSASTGDRVTITCRASQDISSYLAWYQQAPGKAPHLLMSGATTLQTGVPSRFSGSGSGTDFTLTISSLQAEDVAVYYCQQYYRTPFTFGQGTKLEIKR",,
,,"scFv #18 (VH #18, IgG; VL III43; murine HCDR3 F19) (scFv, Humanised monovalent scFv, detected through the c-myc tag with 9E10; also called clone #18; VH18 YOL III43; not shown: c-myc and HIS6 tags (pOPE101), or pIII in the screening ELISA) scFv: QVQLVQSGAELKKPGSSMKVSCKASGDTFSTYSINWVRQAPGQGLEWMGVINPSGGSTSYAQKFQGRVTMTRDTSTSTVYMELSSLRSEDTAVYYCARRRIAYGYDEGHAMDYWGQGTLVTVSSASTKGPKLEEGEFSEARVDIQMTQSPSSLSASTGDRVTITCRASQDISSYLAWYQQAPGKAPHLLMSGATTLQTGVPSRFSGSGSGTDFTLTISSLQAEDVAVYYCQQYYRTPFTFGQGTKLEIKRTVAAPSVFAA",~6,6
